# Assay results published in patent US20110182814A1 (GENERAL HOSPITAL, published 2011).
# Ends that are not written are not given here.
# B1: phage clone 27 displaying the peptide KTLLPTP (SEQ ID NO:1) (peptide)
# peptide: KTLLPTP
# modifications: also: displayed on M13 phage coat protein, phage labelled with FITC or biotin
# notes: Tested as whole labelled phage, not as free peptide; also called FITC-27; PDAC-27; not shown: M13 phage coat protein carrying the 7-mer of the phD7 library (New England Biolabs)
# Tests used:
# [1] = biological target: human plectin-1 (of human PDAC cell lines) (human, UniProt Q15149 1-4684); assay: flow cytometry, FITC-labelled phage on PDAC cell lines, average over lines, reference is the FITC-labelled unrelated phage clone
# Method: (§1) Mouse Pancreatic ductal adenocarcinoma (PDAC) cells, human PDAC cells (i.e. MNA, 8988, SW1990, PaCa-2, ASPC), normal human ductal cells and normal pancreatic cells were incubated with 1 mM (FITC) FITC-labeled phage clone 27 or unrelated phage clone (amino acid sequence SNLHPSD, negative control (SEQ ID NO:XX)) for 1 hour at 37° C., washed 3× with DPBS and visualized by fluorescent microscopy (Nikon Eclipse TE2000-S, Insight QE, 40× objective). The cells were then harvested by incubation with trypsin, centrifuged, and analyzed (10,000 cells/sample) by flow cytometry on a Beckton Dickinson FACSCalibur (San Jose, Calif.). […] Mean fluorescence was plotted against cell number to show relative uptake between cell types.
# The specificity of Clone 27 for human PDAC cells was evaluated as described in this example. Clone 27 and an unrelated phage clone were labeled with FITC, producing FITC-27 and a FITC-unrelated phage clone (negative control). Mouse PDAC cells as a positive control along with five human PDAC cell lines and with normal human ductal cells were incubated with each type of clone and then uptake of the clone was analyzed via fluorescence-activated cell sorter (FACS).
# [2] = biological target: T1, plectin-1 (mouse, of mouse PDAC cells) (mouse, UniProt Q9QXS1 1-4691); assay: flow cytometry, fluorescein-labelled phage on mouse PDAC cells against normal ductal cells
# T1 construct: whole, on cells; On intact cells in the pulldown (photo-crosslink) and in flow cytometry; From cell lysate on a blot in the far western and the western; also called 500 kDa band
# Method: as §1
# Validation of Clone 27 as a PDAC marker (FIG. 1B) was done in experiments described herein, in addition to testing clones 1 (SGVEFLH, SEQ ID NO:4), 9 (SKKDTHH, SEQ ID NO:5), 15 (TMAPSIK, SEQ ID NO:6), 17 (TQHQVTA, SEQ ID NO:7), and 22 (VNDRNVK, SEQ ID NO:8). The phage coat proteins were fluorescein labeled then the extent of phage clone binding and specificity quantified for mouse PDAC and normal ductal cells via flow cytometry (FIG. 1B). […] Phage clone 15 was second in affinity with the remainder having nearly identical specificity.
# Chain of human plectin-1 (of human PDAC cell lines) (Q15149 whole entry): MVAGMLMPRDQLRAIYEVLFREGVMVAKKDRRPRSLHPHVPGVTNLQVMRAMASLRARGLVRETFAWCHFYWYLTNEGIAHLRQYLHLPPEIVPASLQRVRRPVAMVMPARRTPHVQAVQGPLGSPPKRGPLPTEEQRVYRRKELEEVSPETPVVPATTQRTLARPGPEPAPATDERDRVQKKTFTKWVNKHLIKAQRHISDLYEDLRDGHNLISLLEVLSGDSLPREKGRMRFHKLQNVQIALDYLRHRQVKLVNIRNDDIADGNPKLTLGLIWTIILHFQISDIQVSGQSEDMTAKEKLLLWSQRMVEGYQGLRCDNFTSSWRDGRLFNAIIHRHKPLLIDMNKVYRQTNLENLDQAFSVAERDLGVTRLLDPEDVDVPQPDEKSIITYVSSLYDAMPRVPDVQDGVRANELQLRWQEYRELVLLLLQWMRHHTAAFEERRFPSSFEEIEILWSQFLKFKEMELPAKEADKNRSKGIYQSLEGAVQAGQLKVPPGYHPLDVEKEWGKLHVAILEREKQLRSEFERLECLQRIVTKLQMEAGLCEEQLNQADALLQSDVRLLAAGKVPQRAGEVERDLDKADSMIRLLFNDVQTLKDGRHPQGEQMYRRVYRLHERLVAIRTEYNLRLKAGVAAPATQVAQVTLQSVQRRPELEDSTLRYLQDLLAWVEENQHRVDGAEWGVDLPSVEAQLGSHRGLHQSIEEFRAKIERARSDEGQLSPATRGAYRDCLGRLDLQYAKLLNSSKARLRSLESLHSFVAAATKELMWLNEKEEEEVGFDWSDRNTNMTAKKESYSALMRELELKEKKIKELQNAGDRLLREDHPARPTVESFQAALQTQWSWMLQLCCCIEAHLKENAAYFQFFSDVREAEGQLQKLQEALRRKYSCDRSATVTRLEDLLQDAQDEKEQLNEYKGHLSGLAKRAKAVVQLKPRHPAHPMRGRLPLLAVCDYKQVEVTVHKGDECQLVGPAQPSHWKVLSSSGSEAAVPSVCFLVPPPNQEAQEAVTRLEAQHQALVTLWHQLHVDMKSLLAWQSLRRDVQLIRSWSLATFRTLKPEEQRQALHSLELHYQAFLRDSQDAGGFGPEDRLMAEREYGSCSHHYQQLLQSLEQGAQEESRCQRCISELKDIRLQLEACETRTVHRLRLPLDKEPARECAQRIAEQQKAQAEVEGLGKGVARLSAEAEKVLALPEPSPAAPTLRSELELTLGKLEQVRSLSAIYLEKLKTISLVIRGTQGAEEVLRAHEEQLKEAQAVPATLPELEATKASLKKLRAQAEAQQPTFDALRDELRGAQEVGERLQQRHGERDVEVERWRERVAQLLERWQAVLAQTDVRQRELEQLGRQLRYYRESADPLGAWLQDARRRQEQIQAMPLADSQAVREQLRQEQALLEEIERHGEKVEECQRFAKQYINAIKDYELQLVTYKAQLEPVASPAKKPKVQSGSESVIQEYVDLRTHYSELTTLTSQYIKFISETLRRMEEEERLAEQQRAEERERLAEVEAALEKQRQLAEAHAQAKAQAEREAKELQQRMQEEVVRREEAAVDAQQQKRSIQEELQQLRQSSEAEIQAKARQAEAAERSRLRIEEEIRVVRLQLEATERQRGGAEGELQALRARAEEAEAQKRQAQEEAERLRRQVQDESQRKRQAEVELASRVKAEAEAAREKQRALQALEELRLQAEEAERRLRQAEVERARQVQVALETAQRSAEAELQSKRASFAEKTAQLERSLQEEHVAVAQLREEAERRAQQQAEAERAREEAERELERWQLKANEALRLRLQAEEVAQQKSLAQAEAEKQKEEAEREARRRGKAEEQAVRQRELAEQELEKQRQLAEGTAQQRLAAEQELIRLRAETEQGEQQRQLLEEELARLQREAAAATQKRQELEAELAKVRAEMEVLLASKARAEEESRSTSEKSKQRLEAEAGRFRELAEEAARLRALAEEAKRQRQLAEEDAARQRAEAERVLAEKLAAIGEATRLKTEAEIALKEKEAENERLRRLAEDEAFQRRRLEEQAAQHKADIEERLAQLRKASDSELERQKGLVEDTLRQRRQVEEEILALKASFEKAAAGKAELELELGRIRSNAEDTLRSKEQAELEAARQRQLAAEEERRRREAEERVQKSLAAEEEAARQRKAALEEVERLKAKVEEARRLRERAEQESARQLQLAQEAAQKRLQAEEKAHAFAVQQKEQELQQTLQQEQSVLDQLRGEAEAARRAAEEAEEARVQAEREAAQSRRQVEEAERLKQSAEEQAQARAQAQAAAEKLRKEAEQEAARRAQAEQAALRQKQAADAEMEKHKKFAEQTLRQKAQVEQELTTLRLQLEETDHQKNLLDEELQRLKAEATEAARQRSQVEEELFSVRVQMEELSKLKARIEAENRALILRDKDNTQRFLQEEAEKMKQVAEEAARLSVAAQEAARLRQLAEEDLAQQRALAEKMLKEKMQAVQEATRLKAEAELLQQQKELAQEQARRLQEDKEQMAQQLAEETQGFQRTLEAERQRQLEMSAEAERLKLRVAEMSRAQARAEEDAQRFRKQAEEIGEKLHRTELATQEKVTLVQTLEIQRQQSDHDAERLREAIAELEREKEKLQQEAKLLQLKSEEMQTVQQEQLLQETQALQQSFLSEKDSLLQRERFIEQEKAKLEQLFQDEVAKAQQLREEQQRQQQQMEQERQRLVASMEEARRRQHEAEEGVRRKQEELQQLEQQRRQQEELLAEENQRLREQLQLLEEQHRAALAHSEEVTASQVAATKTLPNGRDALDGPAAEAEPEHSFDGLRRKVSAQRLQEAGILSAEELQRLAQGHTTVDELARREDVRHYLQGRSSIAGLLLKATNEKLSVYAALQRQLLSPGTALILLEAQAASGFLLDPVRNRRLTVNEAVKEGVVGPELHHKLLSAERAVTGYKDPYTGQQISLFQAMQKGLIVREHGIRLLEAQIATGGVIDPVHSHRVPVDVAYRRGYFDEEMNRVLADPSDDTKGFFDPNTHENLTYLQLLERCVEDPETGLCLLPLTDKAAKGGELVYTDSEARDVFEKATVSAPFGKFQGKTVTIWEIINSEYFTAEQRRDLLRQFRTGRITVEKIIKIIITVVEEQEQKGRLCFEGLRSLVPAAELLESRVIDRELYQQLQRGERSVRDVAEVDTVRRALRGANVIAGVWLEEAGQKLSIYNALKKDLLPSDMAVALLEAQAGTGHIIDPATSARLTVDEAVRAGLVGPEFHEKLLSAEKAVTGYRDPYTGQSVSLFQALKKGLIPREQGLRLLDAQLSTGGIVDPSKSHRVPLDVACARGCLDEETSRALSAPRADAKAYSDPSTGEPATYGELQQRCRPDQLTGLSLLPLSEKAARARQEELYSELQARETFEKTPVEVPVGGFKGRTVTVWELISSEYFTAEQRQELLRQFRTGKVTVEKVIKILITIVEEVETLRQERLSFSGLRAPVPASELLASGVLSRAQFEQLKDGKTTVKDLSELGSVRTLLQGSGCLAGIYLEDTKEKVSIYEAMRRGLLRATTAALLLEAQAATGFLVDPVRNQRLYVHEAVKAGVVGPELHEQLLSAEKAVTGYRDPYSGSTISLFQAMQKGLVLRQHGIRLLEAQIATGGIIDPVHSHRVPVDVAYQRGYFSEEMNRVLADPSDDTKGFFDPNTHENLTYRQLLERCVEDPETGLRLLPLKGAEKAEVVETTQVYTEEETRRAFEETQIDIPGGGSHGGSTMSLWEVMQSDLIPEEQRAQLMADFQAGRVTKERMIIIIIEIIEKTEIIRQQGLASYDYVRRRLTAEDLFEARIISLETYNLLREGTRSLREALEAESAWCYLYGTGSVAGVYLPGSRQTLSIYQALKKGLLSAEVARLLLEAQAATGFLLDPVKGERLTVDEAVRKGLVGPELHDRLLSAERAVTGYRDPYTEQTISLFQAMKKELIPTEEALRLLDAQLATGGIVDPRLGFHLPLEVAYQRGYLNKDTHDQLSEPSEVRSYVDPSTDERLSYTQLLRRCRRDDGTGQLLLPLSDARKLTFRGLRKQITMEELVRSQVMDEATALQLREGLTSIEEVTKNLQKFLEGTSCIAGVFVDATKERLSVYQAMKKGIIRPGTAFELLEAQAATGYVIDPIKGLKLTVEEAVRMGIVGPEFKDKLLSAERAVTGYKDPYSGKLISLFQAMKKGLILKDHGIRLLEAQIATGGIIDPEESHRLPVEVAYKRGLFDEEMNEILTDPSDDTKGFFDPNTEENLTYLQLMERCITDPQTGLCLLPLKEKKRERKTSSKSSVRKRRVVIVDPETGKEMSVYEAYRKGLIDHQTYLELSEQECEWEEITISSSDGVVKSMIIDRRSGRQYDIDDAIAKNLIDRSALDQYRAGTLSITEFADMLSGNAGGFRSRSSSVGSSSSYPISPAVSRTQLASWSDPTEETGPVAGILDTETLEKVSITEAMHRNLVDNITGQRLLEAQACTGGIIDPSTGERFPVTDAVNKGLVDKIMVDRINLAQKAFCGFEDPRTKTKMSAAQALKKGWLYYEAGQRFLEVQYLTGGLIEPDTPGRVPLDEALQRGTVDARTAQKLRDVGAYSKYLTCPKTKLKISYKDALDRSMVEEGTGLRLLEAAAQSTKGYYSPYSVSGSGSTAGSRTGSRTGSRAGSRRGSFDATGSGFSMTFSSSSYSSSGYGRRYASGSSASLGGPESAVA
binder,measurement,setting,value
B1,specificity (ratio of clone 27/unrelated clone mean fluorescence),[1],141 ratio
same,specificity over normal ductal cells,[2],112 fold
